For data set [1], the target named is T1, AtWRKY12 (Arabidopsis thaliana, UniProt Q93WY4 SEQ:1-218). The experiment in a line: EMSA; 100 ng protein, 20 min; no binding detected. Conditions: tags: MBP fusion, expressed in E. coli, amylose resin purified; label: 5' biotin on one strand. The text has this:
(§1) To express the recombinant AtWRKY12 protein, the coding sequence was fused in frame with maltose binding protein (MBP), expressed in E. coli, and the recombinant protein was purified using amylose resin. The pure protein was used for EMSA with the NST2 or C3H promoter fragments. Double-strand probe and competitor fragments were made from annealing of separately synthesized strands, with/without one 5′ biotin labeled strand. The sequence used for NST2 was:
(§2) For C3H the sequence was: 5′-[…]-3′ (SEQ ID NO:42); and for C3HL the sequence was 5′-[…]-3′ (SEQ ID NO:43). The conserved WRKY binding motifs are underlined. The biotin-labeled and competitor DNA fragments were incubated for 20 min with 100 ng of AtWRKY12-MBP in binding buffer according to the EMSA kit protocol (Pierce, Rockford, Ill.), and reaction mixtures were loaded for polyacrylamide gel electrophoresis. The DNA was electroblotted onto nitrocellulose membrane and detected by the chemiluminescent method.
(Mobility shift assays separate free from complexed probe on a gel.)

Data set [2] has as its target T1, AtWRKY12. The experiment in a line: EMSA; 100 ng protein, 20 min, Pierce EMSA kit buffer. To be noted: tags: MBP fusion, expressed in E. coli, amylose resin purified; label: 5' biotin on one strand.
Text: as §1, §2

T1 sequence (Q93WY4 whole entry, the tested form may be a part): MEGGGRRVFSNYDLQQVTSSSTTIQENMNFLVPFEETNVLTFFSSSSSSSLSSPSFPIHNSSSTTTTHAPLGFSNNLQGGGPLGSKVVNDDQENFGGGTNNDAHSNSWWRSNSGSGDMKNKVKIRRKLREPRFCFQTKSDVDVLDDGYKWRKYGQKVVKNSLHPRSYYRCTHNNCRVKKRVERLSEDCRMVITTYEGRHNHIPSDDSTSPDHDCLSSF

B1: C3H14L promoter fragment (dsDNA)
DNA 1: TGGCTTAAATCATATTGACAAGACCCATTAAAAAGAGG
DNA 2: CCTCTTTTTAATGGGTCTTGTCAATATGATTTAAGCCA
Regarding B1, the binding result with AtWRKY12 [1] is “no binding”.

B2: NST2 promoter fragment (dsDNA)
DNA 1: AAAGAGACCATTAGTATATTTGACCCAAAAAAAAATAAAAAAAAAAGAG
DNA 2: CTCTTTTTTTTTTATTTTTTTTTGGGTCAAATATACTAATGGTCTCTTT
Consider B2, for which the binding result with AtWRKY12 [2] is given as “binds”.

B3: C3H14 promoter fragment (dsDNA)
DNA 1: TGGAAGATGCATGTTATTGACTAAATATGATCTACCA
DNA 2: TGGTAGATCATATTTAGTCAATAACATGCATCTTCCA
For the molecule B3, the binding result in the data set with AtWRKY12 [1] was “no binding”.
